Results from article PMC7311561.

Tests used:
[1] = biological target: cathepsin L from human (human)
[2] = biological target: cathepsin B from human (human)
[3] = biological target: papain from Carica papaya (Carica papaya) (UniProt P00784)
Chain of papain from Carica papaya (Carica papaya) (P00784 134-345): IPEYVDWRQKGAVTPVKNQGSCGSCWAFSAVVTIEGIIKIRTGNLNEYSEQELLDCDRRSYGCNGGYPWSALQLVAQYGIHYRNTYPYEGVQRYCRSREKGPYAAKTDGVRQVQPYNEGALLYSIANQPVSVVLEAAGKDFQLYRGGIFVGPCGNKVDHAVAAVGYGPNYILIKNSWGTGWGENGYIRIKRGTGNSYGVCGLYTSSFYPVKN

Substance “TK-cystatin (secretory cystatin from Thelohanellus kitauei) (natural protein)” has an IC50 of inhibition of cathepsin L activity (0.026 μmol/L cathepsin L, fluorogenic substrate Z-Phe-Arg-AMC, pH 5.5, increasing TK-cystatin) [1] of 0.175 μmol/L, an IC50 of inhibition of cathepsin B activity (0.026 μmol/L cathepsin B, fluorogenic substrate Z-Arg-Arg-AMC, pH 5.5, increasing TK-cystatin) [2] of 2.1 μmol/L and an IC50 of inhibition of papain activity (0.15 μmol/L papain, fluorogenic substrate Z-Phe-Arg-AMC, pH 5.5, increasing TK-cystatin) [3] of 0.8 μmol/L.
